Consider six molecules from patent publication US20080227711A1 (LABORATOIRES SERONO, published 2008).

Sequences and labels used below:
T1: CXCL8/IL-8 (UniProt P10145 28-99, limits assumed)
T1 sequence (looked up): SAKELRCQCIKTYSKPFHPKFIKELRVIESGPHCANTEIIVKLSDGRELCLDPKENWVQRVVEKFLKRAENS

T2: CXCL1/Gro-alpha (UniProt P09341 35-107)
T2 sequence: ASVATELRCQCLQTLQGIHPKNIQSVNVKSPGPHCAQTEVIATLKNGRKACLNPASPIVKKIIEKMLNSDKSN

T3: murine CXCL1/KC (murine, UniProt P12850 25-96)
T3 sequence: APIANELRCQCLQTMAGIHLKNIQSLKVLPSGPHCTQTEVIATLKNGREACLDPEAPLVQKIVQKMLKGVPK

T4: murine CXCL2/MIP-2 (murine, UniProt P10889 28-100)
T4 sequence: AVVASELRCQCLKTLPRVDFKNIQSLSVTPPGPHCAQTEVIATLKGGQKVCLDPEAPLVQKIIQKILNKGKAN

T5: CX3CL1/Fractalkine (UniProt P78423 25-100)
T5 sequence: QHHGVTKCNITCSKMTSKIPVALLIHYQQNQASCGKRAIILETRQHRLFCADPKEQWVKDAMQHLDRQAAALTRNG

T6: IL-1α (UniProt P01583 113-271)
T6 construct: also called 125I-IL-1
T6 sequence: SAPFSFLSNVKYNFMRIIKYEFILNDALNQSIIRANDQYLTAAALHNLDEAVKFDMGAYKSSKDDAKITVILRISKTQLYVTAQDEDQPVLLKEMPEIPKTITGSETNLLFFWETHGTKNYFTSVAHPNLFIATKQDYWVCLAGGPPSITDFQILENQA

T7: CTACK/CCL27 (UniProt Q9Y4X3 25-112)
T7 construct: also called 125I-CCL27/CTACK
T7 sequence: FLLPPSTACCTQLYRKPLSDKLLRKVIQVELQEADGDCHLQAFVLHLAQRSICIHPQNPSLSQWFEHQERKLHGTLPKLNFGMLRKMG

T8: CXCL10/IP-10 (UniProt P02778 22-98)
T8 construct: also called 125I-CXCL10/IP-10
T8 sequence: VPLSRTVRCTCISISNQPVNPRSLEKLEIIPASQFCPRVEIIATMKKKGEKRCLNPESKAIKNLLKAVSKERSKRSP

B1: CCL5/RANTES (ligand)
chain: SPYSSDTTPCCFAYIARPLPRAHIKEYFYTSGKCSNPAVVFVTRKNRQVCANPEKKWVREYINSLEMS
notes: also called 125I-CCL5/RANTES
B2: TARC/CCL17 (ligand)
chain: ARGTNVGRECCLEYFKGAIPLRKLKTWYQTSEDCSRDAIVFVTVQGRAICSDPNNKRVKNAVKYLQSLERS
notes: also called 125I-CCL17/TARC
B3: recombinant Evasin-3-6His purified from HEK293 cells (other)
chain: LVSTIESRTSGDGADNFDVVSCNKNCTSGQNECPEGCFCGLLGQNKKGHCYKIIGNLSGEPPVVRRHHHHHH
modifications: glycosylation on the S and T residues of the N-terminal sequence LVSTIESRTS (80% of the mature protein); heterogeneous post-translational modification, smear of 20-30 Kd
notes: also called Evasin-3-HIS; mature Evasin-3-HIS
B4: CCL4/MIP-1-beta (ligand)
chain: APMGSDPPTACCFSYTARKLPRNFVVDYYETSSLCSQPAVVFQTKRSKQVCADPSESWVQEYVYDLELN
notes: also called MIP-1β
B5: CCL18/PARC (ligand)
chain: AQVGTNKELCCLVYTSWQIPQKFIVDYSETSPQCPKPGVILLTKRGRQICADPNKKWVQKYISDLKLNA
B6: CCL3/MIP-1-alpha (ligand)
chain: SLAADTPTACCFSYTSRQIPQNFIADYFETSSQCSKPGVIFLTKRSRQVCADPSEEWVQKYVSDLELSA
notes: also called MIP-1α

Experiment [1] has as its target B3. The experiment is described as follows: BS3 cross-linking of 125I-labelled protein to Evasin-3-6His, SDS-PAGE autoradiography (FIG. 7).
Experiment [2] addresses T1, CXCL8/IL-8. Briefly: cell-based or functional assay.
Experiment [3] has as its target T2, CXCL1/Gro-alpha. Briefly: cell-based or functional assay.
For experiment [4], the target named is T1, CXCL8/IL-8. Briefly: equilibrium competition receptor binding assay: inhibition of 0.1 nM 125I-IL-8 binding to CHO/CXCR1 cells.
Experiment [5] has as its target T1, CXCL8/IL-8. Briefly: SPR (Biacore 3000), Evasin-3-6His immobilized on CM4 chip, Kd=kd/ka. A general note: SPR reads the build-up and loss of mass on a sensor chip optically.
The target of experiment [6] is T3, murine CXCL1/KC. Described as above.
In experiment [7] the target is T4, murine CXCL2/MIP-2. The experiment is described as above.
For experiment [8], the target named is T2, CXCL1/Gro-alpha. The description is as above.
The next experiment addresses T9, CXCL12/SDF-1-alpha (UniProt P48061 22-89).
T9 construct: also called SDF-1α
Briefly: SPR (Biacore 3000), Evasin-3-6His immobilized on CM4 chip, chemokine injected.

Another experiment deals with T5, CX3CL1/Fractalkine. Described as above.
Another experiment addresses T10, CCL11/eotaxin (UniProt P51671 24-97).
T10 construct: also called 125I-eotaxin
The experiment is described as above.

Experiment [9] has as its target T1, CXCL8/IL-8. Briefly: SPR (Biacore 3000), Evasin-3-6His immobilized on CM4 chip, chemokine injected, Langmuir global fit.
Experiment [10] concerns the target T3, murine CXCL1/KC. The experiment is described as above.
Experiment [11] deals with T4, murine CXCL2/MIP-2. The description is as above.
For experiment [12], the target named is T2, CXCL1/Gro-alpha. The description is as above.
Another experiment concerns the target T11, IL-2 (UniProt P60568 21-153).
T11 construct: also called 125I-IL-2
The experiment is described as follows: BS3 cross-linking of 125I-labelled protein to Evasin-3-6His, SDS-PAGE autoradiography (FIG. 7).

The next experiment concerns the target T6, IL-1α. The description is as above.
The target of a further experiment is T7, CTACK/CCL27. The description is as above.
The target in the next experiment is T8, CXCL10/IP-10. Described as above.
The next experiment has as its target T12, CCL2/MCP-1 (UniProt P13500 24-99).
T12 construct: also called 125I-MCP-1
Described as above.

The target of experiment [13] is B3. The experiment is described as follows: SPR (Biacore 3000), Evasin-3-6His immobilized on CM4 chip, chemokine injected.
Experiment [14] has as its target B3. The experiment is described as follows: competition for BS3 cross-linking of 125I-CXCL8/IL-8 to recombinant Evasin-3 in HEK293 supernatant, SDS-PAGE autoradiography.

As usually defined, the IC50 is the concentration that gives 50% inhibition. As a reminder, the Kd is the free concentration of one partner at which half of the binding sites on the other are occupied at equilibrium, for simple one-to-one binding. Low values mean a tighter complex, high ones a looser complex. Broadly, the koff is the rate constant with which the complex falls apart. In general, kon refers to the second-order rate constant of association.

T12 sequence (P13500 24-99 limits assumed): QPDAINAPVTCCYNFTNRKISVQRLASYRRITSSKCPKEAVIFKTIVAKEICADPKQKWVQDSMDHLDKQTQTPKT
T11 sequence (P60568 21-153 limits assumed): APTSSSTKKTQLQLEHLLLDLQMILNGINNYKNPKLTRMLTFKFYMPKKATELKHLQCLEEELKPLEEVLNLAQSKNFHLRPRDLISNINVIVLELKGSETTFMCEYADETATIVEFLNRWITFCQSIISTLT
T9 sequence (P48061 22-89 limits assumed): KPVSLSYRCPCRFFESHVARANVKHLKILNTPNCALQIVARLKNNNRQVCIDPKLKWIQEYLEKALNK
T10 sequence (P51671 24-97 limits assumed): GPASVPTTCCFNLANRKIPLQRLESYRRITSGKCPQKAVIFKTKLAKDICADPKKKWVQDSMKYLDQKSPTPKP

As for B1, the binding result in experiment [1] is reported as “no binding (tested: 0.23 nM 125I-labelled protein)”.

In the case of B2, in experiment [1], the binding result was “no binding (tested: 0.23 nM 125I-labelled protein)”.

On to B3, for which the “IC50 of inhibition of IL-8 induced chemotaxis of human neutrophils” value with CXCL8/IL-8 [2] was 16 nM. For the same molecule, in the experiment with CXCL1/Gro-alpha [3], the “IC50 of inhibition of Gro-alpha induced chemotaxis of human neutrophils” value is 20 nM. Moreover, the IC50 in the experiment with CXCL8/IL-8 [4] was 1 nM. In addition, the dissociation constant Kd in the experiment with CXCL8/IL-8 [5] came out at 0.22 nM; in the experiment with murine CXCL1/KC [6], 5.34 nM; in the experiment with murine CXCL2/MIP-2 [7], 0.18 nM; with CXCL1/Gro-alpha [8], 0.45 nM. Besides, the binding result with CXCL12/SDF-1-alpha is “no binding (tested: 0.5 µg/ml chemokine)”; in the experiment with CX3CL1/Fractalkine it was “no binding (tested: 0.5 µg/ml chemokine)”; with CCL11/eotaxin, “no binding (tested: 0.5 µg/ml chemokine)”; with IL-2, “no binding (tested: 0.23 nM 125I-labelled protein)”; with IL-1α it was “no binding (tested: 0.23 nM 125I-labelled protein)”; with CTACK/CCL27, “no binding (tested: 0.23 nM 125I-labelled protein)”. Moreover, the binding result with CXCL10/IP-10 and in the experiment with CCL2/MCP-1 was “no binding (tested: 0.23 nM 125I-labelled protein)” each time. The dissociation rate constant (koff) with CXCL8/IL-8 [9] stood at 0.000178 s⁻¹; in the experiment with murine CXCL1/KC [10], 0.0012 s⁻¹; with murine CXCL2/MIP-2 [11], 0.000255 s⁻¹; with CXCL1/Gro-alpha [12], 0.00117 s⁻¹. Also, the kon stood at 826000 M⁻¹ s⁻¹ with CXCL8/IL-8 [9], 225000 M⁻¹ s⁻¹ with murine CXCL1/KC [10], 1.43e+06 M⁻¹ s⁻¹ in the experiment with murine CXCL2/MIP-2 [11] and 2.6e+06 M⁻¹ s⁻¹ with CXCL1/Gro-alpha [12].

Take B4: in [13], the binding result is on record as “no binding (tested: 0.5 µg/ml chemokine)”.

In the case of B5, the binding result in experiment [13] is “no binding (tested: 0.5 µg/ml chemokine)”.

As to B6, the binding result in experiment [14] is reported as “no binding (tested: 1 µg unlabelled (500 fold excess))”.
